In this series the test system is Saccharomyces cerevisiae. Nature of the series: protein stability index of tFT-peptide fusion (C-terminal peptide) (PSI (0-1 scale)); higher = more stable (slower turnover). The conditions noted are these: temperature: 30 C. As to the method:
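MPS profiling in S. cerevisiae of the yeast C-terminome library: the last 12 aa of each annotated ORF are fused to the C-terminus of a sfGFP-mCherry timer, after a GGGS linker. Cells are FACS-sorted into 8 mCherry/sfGFP bins and deep-sequenced. PSI runs from 0 (unstable) to 1 (stable); wild type and das1Δ backgrounds, two technical replicates each.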

[1] abbreviates: genetic background: das1 deletion.

± gives the standard deviation of the averaged measurements.

Experimental findings from the supplement of paper PMC10724198 are described below.

Turning to EVTSLYTNASNA [DPC29 C-terminal 12 aa], the protein stability index reads like this: under setting [1], 0.715 ± 0.011; (genetic background: wild type) 0.703 ± 0.049.

Take EYNLDTFIKTLR [MOT1 C-terminal 12 aa]: the protein stability index is, setting by setting: under setting [1], 0.7535 ± 0.0064; (genetic background: wild type) 0.6883 ± 0.0023.

On to FAKLAAIPCSNA [YMR265C C-terminal 12 aa], for which the protein stability index came out at 0.553 ± 0.0059 under setting [1] and 0.5659 ± 0.0046 (genetic background: wild type).

For the sequence FEHFHCVLDQIL [YDR203W C-terminal 12 aa], the protein stability index by setting is: under setting [1], 0.7056 ± 0.0043; (genetic background: wild type) 0.6954 ± 0.0031.

Regarding FFFATQRDLKRT [YDR431W C-terminal 12 aa], the protein stability index by setting is: under setting [1], 0.715 ± 0.05; (genetic background: wild type) 0.733 ± 0.019.

In the case of FFMSDMNLSKEG [ATG13 C-terminal 12 aa], the protein stability index by setting is: under setting [1], 0.752 ± 0.016; (genetic background: wild type) 0.654 ± 0.048.

On to “FFPFITIIFFHS [YCR024C-B C-terminal 12 aa]”, for which the protein stability index by setting is: under setting [1], 0.324 ± 0.026; (genetic background: wild type) 0.299 ± 0.01.

Regarding FGIKKNDLKKSN [GSF2 C-terminal 12 aa], the protein stability index turned out to be 0.708 ± 0.014 under setting [1] and 0.705 ± 0.023 (genetic background: wild type).

Regarding FGRKLKKIFGRK [SEG2 C-terminal 12 aa], the protein stability index is, setting by setting: under setting [1], 0.675 ± 0.035; (genetic background: wild type) 0.6421 ± 0.0063.

Sequence FIEALAKSVNEL [UGA1 C-terminal 12 aa] displayed a protein stability index under setting [1] of 0.7371 ± 0.0042 and a protein stability index (genetic background: wild type) of 0.689 ± 0.054.

Consider FKELLGYTLVSA [VSB1 C-terminal 12 aa], for which the protein stability index amounted to 0.356 ± 0.03 under setting [1] and 0.391 ± 0.0093 (genetic background: wild type).

As to FKITTEHGTTQQ [CRT10 C-terminal 12 aa], the protein stability index was determined as 0.675 ± 0.0095 under setting [1] and 0.685 ± 0.031 (genetic background: wild type).

FKLKDEYLLIDD [SAS2 C-terminal 12 aa]: the protein stability index came out at 0.69 ± 0.016 under setting [1] and 0.666 ± 0.031 (genetic background: wild type).

FLIHTPKHPPPT [POG1 C-terminal 12 aa]: the protein stability index by setting is: under setting [1], 0.698 ± 0.011; (genetic background: wild type) 0.725 ± 0.021.

For FMWLLLALPVVF [FLO11 C-terminal 12 aa], the protein stability index is, setting by setting: under setting [1], 0.362 ± 0.027; (genetic background: wild type) 0.393 ± 0.019.

As to FRALAELYNLVL [GAS5 C-terminal 12 aa], the protein stability index by setting is: under setting [1], 0.701 ± 0.02; (genetic background: wild type) 0.681 ± 0.013.

Consider FRSTRSNTPNYT [HDA2 C-terminal 12 aa], for which the protein stability index reads like this: under setting [1], 0.728 ± 0.018; (genetic background: wild type) 0.737 ± 0.046.

For FTAVLGTYLLTL [SDH3 C-terminal 12 aa], the protein stability index under setting [1] is 0.6494 ± 0.005 and the protein stability index (genetic background: wild type) was determined as 0.645 ± 0.0016.

For the sequence FVLKTLNMNVTN [OST1 C-terminal 12 aa], the protein stability index under setting [1] was 0.681 ± 0.0095 and the protein stability index (genetic background: wild type) was 0.668 ± 0.0024.

Consider FVRKIYSSIKVD [EMP70 C-terminal 12 aa], for which the protein stability index reads like this: under setting [1], 0.665 ± 0.025; (genetic background: wild type) 0.614 ± 0.04.

“FYNIHDERIREQ [YKL162C-A C-terminal 12 aa]” returned a protein stability index under setting [1] of 0.746 ± 0.013 and a protein stability index (genetic background: wild type) of 0.657 ± 0.078.

As for GATDTSCYKERG [MRPL27 C-terminal 12 aa], the protein stability index by setting is: under setting [1], 0.695 ± 0.026; (genetic background: wild type) 0.702 ± 0.085.

Consider GEEKKHLKMASP [MDE1 C-terminal 12 aa], for which the protein stability index is 0.6905 ± 0.0062 under setting [1] and 0.704 ± 0.035 (genetic background: wild type).

On to GELFQIVSNQSS [STE6 C-terminal 12 aa], for which the protein stability index reads like this: under setting [1], 0.702 ± 0.017; (genetic background: wild type) 0.679 ± 0.0082.

Consider GFKGFSNKRVKG [MSS18 C-terminal 12 aa], for which the protein stability index under setting [1] is 0.689 ± 0.015 and the protein stability index (genetic background: wild type) was 0.6964 ± 0.0036.

Take GFRLRFWKSLGF [CYT2 C-terminal 12 aa]: the protein stability index by setting is: under setting [1], 0.706 ± 0.029; (genetic background: wild type) 0.716 ± 0.023.

The sequence GGFDDGFDGSDF [WWM1 C-terminal 12 aa] gave a protein stability index under setting [1] of 0.719 ± 0.012 and a protein stability index (genetic background: wild type) of 0.728 ± 0.0098.

In the case of “GGKIFSLKLTLI [YPR108W-A C-terminal 12 aa]”, the protein stability index under setting [1] was 0.673 ± 0.011 and the protein stability index (genetic background: wild type) stood at 0.384 ± 0.023.

GGLSDIGKNTSN [HUG1 C-terminal 12 aa]: the protein stability index came out at 0.693 ± 0.013 under setting [1] and 0.684 ± 0.016 (genetic background: wild type).

Regarding GGNSSKKGKKKR [RQC2 C-terminal 12 aa], the protein stability index worked out at 0.6835 ± 0.00078 under setting [1] and 0.724 ± 0.022 (genetic background: wild type).

GGRNQYGGDDDY [DDR48 C-terminal 12 aa] yielded a protein stability index under setting [1] of 0.698 ± 0.015 and a protein stability index (genetic background: wild type) of 0.6858 ± 0.0067.

Turning to GKKLKKIFGRKK [SEG1 C-terminal 12 aa], the protein stability index worked out at 0.719 ± 0.006 under setting [1] and 0.6627 ± 0.0025 (genetic background: wild type).

For GKTDYLDTKLIF [EKI1 C-terminal 12 aa], the protein stability index amounted to 0.739 ± 0.02 under setting [1] and 0.726 ± 0.0084 (genetic background: wild type).

Consider GKVAKYIFDNIC [BNA7 C-terminal 12 aa], for which the protein stability index by setting is: under setting [1], 0.696 ± 0.015; (genetic background: wild type) 0.722 ± 0.024.

Regarding GKVLFKPSSSIF [YBR064W C-terminal 12 aa], the protein stability index amounted to 0.719 ± 0.011 under setting [1] and 0.695 ± 0.017 (genetic background: wild type).

Turning to GKYFLKEEQDEI [YUR1 C-terminal 12 aa], the protein stability index by setting is: under setting [1], 0.692 ± 0.025; (genetic background: wild type) 0.7058 ± 0.0067.

With GKYNIKVKLNFI [VAR1 C-terminal 12 aa], the protein stability index is 0.704 ± 0.027 under setting [1] and 0.69 ± 0.096 (genetic background: wild type).

Turning to GLQFHFKAEHKD [PHO86 C-terminal 12 aa], the protein stability index is, setting by setting: under setting [1], 0.701 ± 0.014; (genetic background: wild type) 0.686 ± 0.058.

Turning to GLSDEEDSSEED [RRT14 C-terminal 12 aa], the protein stability index is, setting by setting: under setting [1], 0.679 ± 0.00072; (genetic background: wild type) 0.698 ± 0.021.

In turn, GLVATAVKQLPQ [VPS64 C-terminal 12 aa] had a protein stability index under setting [1] of 0.674 ± 0.0032 and a protein stability index (genetic background: wild type) of 0.662 ± 0.014.

As for GNINDDDDGFFD [PLP2 C-terminal 12 aa], the protein stability index was 0.724 ± 0.021 under setting [1] and 0.698 ± 0.019 (genetic background: wild type).

GNLMRSSNVLEK [SLO1 C-terminal 12 aa]: the protein stability index amounted to 0.685 ± 0.0076 under setting [1] and 0.7 ± 0.016 (genetic background: wild type).

Take GNSDGSVEVTEK [RKI1 C-terminal 12 aa]: the protein stability index by setting is: under setting [1], 0.6897 ± 0.0053; (genetic background: wild type) 0.705 ± 0.03.

Regarding GPLLDYLSSDED [CWC2 C-terminal 12 aa], the protein stability index reads like this: under setting [1], 0.7139 ± 0.0039; (genetic background: wild type) 0.693 ± 0.0055.

On to GQHTKTTGRRRA [RPS18A C-terminal 12 aa], for which the protein stability index runs as follows: under setting [1], 0.6995 ± 0.0039; (genetic background: wild type) 0.686 ± 0.032.

As to GQIVIVHYLYDR [YOR218C C-terminal 12 aa], the protein stability index was 0.422 ± 0.018 under setting [1] and 0.445 ± 0.051 (genetic background: wild type).

As for GQPPAPFRLRSD [SDS3 C-terminal 12 aa], the protein stability index runs as follows: under setting [1], 0.7109 ± 0.00038; (genetic background: wild type) 0.709 ± 0.049.

Turning to GQSLTNTGGGCC [YPT1 C-terminal 12 aa], the protein stability index by setting is: under setting [1], 0.707 ± 0.011; (genetic background: wild type) 0.6389 ± 0.00065.

In the case of GRVHGEEDPTKK [HSP12 C-terminal 12 aa], the protein stability index was 0.707 ± 0.024 under setting [1] and 0.6953 ± 0.0032 (genetic background: wild type).

GSLLLYLLLKIL [INP54 C-terminal 12 aa]: the protein stability index is 0.34 ± 0.018 under setting [1] and 0.119 ± 0.0017 (genetic background: wild type).

As for GSNAEEDDDLYS [CDC48 C-terminal 12 aa], the protein stability index by setting is: under setting [1], 0.7027 ± 0.0045; (genetic background: wild type) 0.653 ± 0.03.

As to GSPNSLLLNIGR [PHB1 C-terminal 12 aa], the protein stability index under setting [1] was found to be 0.698 ± 0.015 and the protein stability index (genetic background: wild type) came out at 0.719 ± 0.016.

On to GTKVDDDKKNKS [SPP2 C-terminal 12 aa], for which the protein stability index is, setting by setting: under setting [1], 0.7041 ± 0.0011; (genetic background: wild type) 0.663 ± 0.03.

Regarding GVFSKSSAELRF [YDL016C C-terminal 12 aa], the protein stability index runs as follows: under setting [1], 0.715 ± 0.013; (genetic background: wild type) 0.706 ± 0.023.

In the case of GVYMELVKVLFG [YLR177W C-terminal 12 aa], the protein stability index reads like this: under setting [1], 0.607 ± 0.015; (genetic background: wild type) 0.631 ± 0.013.

Regarding GWDLRFEEDPSA [TRP5 C-terminal 12 aa], the protein stability index reads like this: under setting [1], 0.731 ± 0.018; (genetic background: wild type) 0.6905 ± 0.0042.

Regarding GYIVGVAALLFL [ANS1 C-terminal 12 aa], the protein stability index by setting is: under setting [1], 0.428 ± 0.011; (genetic background: wild type) 0.4532 ± 0.004.

As for GYSPKPISKKEE [ALE1 C-terminal 12 aa], the protein stability index stood at 0.719 ± 0.011 under setting [1] and 0.648 ± 0.012 (genetic background: wild type).

As for “GYWEDVFVHLAL [HMLALPHA1 C-terminal 12 aa]”, the protein stability index under setting [1] is 0.7685 ± 0.0061 and the protein stability index (genetic background: wild type) turned out to be 0.757 ± 0.012.

On to HDELKYPVDMVI [PDR17 C-terminal 12 aa], for which the protein stability index stood at 0.705 ± 0.022 under setting [1] and 0.757 ± 0.058 (genetic background: wild type).

Take HELKTHLPLNLI [SMT1 C-terminal 12 aa]: the protein stability index came out at 0.707 ± 0.018 under setting [1] and 0.697 ± 0.037 (genetic background: wild type).

Take HEVQNAEQEVAQ [MAK16 C-terminal 12 aa]: the protein stability index runs as follows: under setting [1], 0.673 ± 0.0074; (genetic background: wild type) 0.681 ± 0.034.

For HHLTYLPSVPSL [MMO1 C-terminal 12 aa], the protein stability index by setting is: under setting [1], 0.715 ± 0.025; (genetic background: wild type) 0.71 ± 0.053.

For the sequence HHNQIGVPRVEN [GID8 C-terminal 12 aa], the protein stability index is, setting by setting: under setting [1], 0.679 ± 0.013; (genetic background: wild type) 0.674 ± 0.011.

On to HKELLAKLEGSD [HNT1 C-terminal 12 aa], for which the protein stability index runs as follows: under setting [1], 0.688 ± 0.0052; (genetic background: wild type) 0.703 ± 0.025.

For HNLHSYEKRLYN [IMD4 C-terminal 12 aa], the protein stability index is 0.702 ± 0.025 under setting [1] and 0.672 ± 0.013 (genetic background: wild type).

In the case of HQKTKTLASLSI [NUP49 C-terminal 12 aa], the protein stability index stood at 0.707 ± 0.014 under setting [1] and 0.631 ± 0.0093 (genetic background: wild type).
